“And” between values parts separate entries of the source, which are not always exact repeats. Equal values may be shown once. Read-outs that look alike come from different tables or passages of the source.
How the values were obtained:
pm6 = target: T1, pm6 (Y16 and Y17 sulfated; Y15 not sulfated); assay: ELISA on coated peptide [cont.]
T1 construct: also called sulfated CCR8 N-terminal peptide pm6
Method in brief: (§1)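 Steps: peptide coating (500 ng/ml, carbonate/bicarbonate); anti-CCR8 mAb added at 1 μg/mL and diluted 1/10; room-temperature incubation of 90 min; washes to remove unbound antibody; 15 min TMB; OD measurement.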

pm8 = target: T2, pm8 (Y15, Y16 and Y17 sulfated); assay: ELISA on coated peptide [cont.]
T2 construct: also called sulfated CCR8 N-terminal peptide pm8
Method in brief: as §1

pm3 = target: T3, pm3 (Y17 sulfated; Y15 and Y16 not sulfated); assay: ELISA on coated peptide [cont.]
T3 construct: also called sulfated CCR8 N-terminal peptide pm3
Method in brief: as §1

pm5 = target: T4, pm5 (Y15 and Y17 sulfated; Y16 not sulfated); assay: ELISA on coated peptide [cont.]
T4 construct: also called sulfated CCR8 N-terminal peptide pm5
Method in brief: as §1

human CCR8 [1] = target: T5, human CCR8 (human, UniProt P51685 1-355); assay: flow cytometry, inhibition of hCCL1-AF647 (10 nM) binding to hCCR8-CHO cells
T5 construct: also called hCCR8; CC chemokine receptor 8
Method in brief: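 hCCR8-transfected CHO cells preincubated 30 min at 4 °C with anti-CCR8 mAb (8 concentrations, top 10 μg/mL, 1/3 dilutions), washed, then exposed to labelled CCL1. Bound CCL1 quantified by flow cytometry; IC₅₀ of binding blockade from sigmoidal variable-slope fit.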

human CCR8 [2] = target: T5, human CCR8; assay: cell-based or functional assay
human CCR8 [3] = target: T5, human CCR8; assay: flow cytometry competition on hCCR8 transfected CHO cells; blocked ligand hCCL1-AF647 [cont.]
Protocol: The hCCR8 transfected CHO cell line was dispatched at a density of 1.105 per well in a 96-well plate. Cells were incubated for 30 min at 4° C. with or without anti-CCR8 mAb tested at 10 μg/mL then diluted at 1/3. Unbound antibodies were washed away with PBS (Gibco, Villebon-sur-yvette, France) supplemented by 2% Fetal Bovine Serum (Invitrogen by Thermofisher Scientific, Illkirch-Graffenstaden, France) and 2 mM EDTA. […] After washing unbound ligands, CCL1 bound detection is quantified on a MacsQuant16 (Miltenyi, Gladbach, Germany) (R1 channel, 5 000 events per acquisition).
For IC₅₀ determination, a concentration response curve is performed using 8 concentrations of mAb. Curves are fitted and IC₅₀ of CCL1 binding blocking activity is calculated using the sigmoidal dose-response (variable slope) model on GraphPad Prism 9 (GraphPad Software, San Diego, CA, USA).

human CCR8 [4] = target: T5, human CCR8; assay: cell-based or functional assay; remark: listed apart in the source
human CCR8 [5] = target: T5, human CCR8; assay: flow cytometry, hCCR8-transfected CHO-K1 cells
Method in brief: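 Antibody incubation ran 30 min at 4° C, followed by fluorescent anti-mouse or anti-human IgG secondary for 30 min at 4° C. Isotype-matched mAbs served as nonspecific-binding controls.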

human CCR8 [6] = target: T5, human CCR8; assay: cell-based or functional assay; remark: listed apart in the source
[7] = target: T6, human CCR8 with a SNAP-tag at the N-terminus (human, UniProt P51685 1-355, SNAP-tag labelled covalently with Lumi4-Terbium); assay: HTRF Tag-lite, inhibition of hCCL1-AF647 binding to SNAP-hCCR8 on HEK-293 cells
T6 construct: also called hCCR8 SNAP-tag; CCR8 SNAP-tag
Protocol: (§2) The inhibition of CCL1 binding to hCCR8 was evaluated with the Tag-Lite® technology from Cisbio (Revvity). Human CCR8 is engineered with a SNAP-tag at the N-terminus of the GPCR. hCCR8 SNAP-tag is transiently transfected on HEK-293 cell line using FuGene® (Promega, Madison, WI, USA). 48 hours after transfection, cells are labeled with the substrate Lumi4-Terbium® (Cisbio, Codolet, France) which covalently reacts with the SNAP-tag, for 1 h at 37° C. Thawed or freshly labeled cells are plated in a 384 low volume white plate (GREINER Bio-One, Courtaboeuf, France) (10000 cells/well/10 μl). […] The Kd was previously obtained in a saturation binding assay on the same cells. […] The plate is next incubated at 21° C. for 2 h. Detection of HTRF signal is performed on the multiplate reader EnVision (PerkinElmer, Waltham, MA, USA). The HTRF (665/620) ratio is calculated by EnVision software, the data exported are considered as the total binding. The specific binding is calculated then by subtracting the non-specific signal from the total binding. The Ki and IC₅₀ are calculated using the “One site-Fit Ki” and “One site-FitlogIC50” from GraphPad Prism 9 (Graphpad Software, San Diego, CA, USA), respectively.

pm4 = target: T7, pm4 (sulfated tyrosine(s) among Y15, Y16, Y17; which ones is not told (the underlining of Table 1 is lost in the text)); assay: ELISA on coated peptide [cont.]
T7 construct: also called sulfated CCR8 N-terminal peptide pm4
Method in brief: as §1

pm2 = target: T8, pm2 (sulfated tyrosine(s) among Y15, Y16, Y17; which ones is not told (the underlining of Table 1 is lost in the text)); assay: ELISA on coated peptide [cont.]
T8 construct: also called sulfated CCR8 N-terminal peptide pm2
Method in brief: as §1

pm1 = target: T9, pm1 (sulfated tyrosine(s) among Y15, Y16, Y17; which ones is not told (the underlining of Table 1 is lost in the text)); assay: ELISA on coated peptide [cont.]
T9 construct: also called sulfated CCR8 N-terminal peptide pm1
Method in brief: as §1

[8] = target: T6, human CCR8 with a SNAP-tag at the …; assay: HTRF Tag-lite, inhibition of hCCL1-AF647 binding to SNAP-hCCR8 on HEK-293 cells; remark: listed apart in the source
Protocol: as §2

human CCR8 [9] = target: T5, human CCR8; assay: cell-based or functional assay; remark: listed apart in the source
pwt1 = target: T10, pwt1 (none (unmodified peptide)); assay: ELISA on coated peptide [cont.]
T10 construct: also called unmodified CCR8 N-terminal peptide
Method in brief: as §1

human CCR8 [10] = target: T5, human CCR8; assay: cell-based or functional assay; remark: listed apart in the source
human CCR8 [11] = target: T5, human CCR8; assay: cell-based or functional assay; remark: listed apart in the source
human CCR8 [12] = target: T5, human CCR8; assay: flow cytometry, HUT78 cells (endogenous CCR8)
Protocol: In human activated T cells model, prior to mAb incubation, cells were first incubated with 200 nM of hCCL1 (R&D Systems, Minneapolis, MN, USA) or buffer PBS (Invitrogen by Thermofisher Scientific, Illkirch-Graffenstaden, France) supplemented by 2% Fetal Bovine Serum (Invitrogen by Thermofisher Scientific, Illkirch-Graffenstaden, France) and 2 mM EDTA (Invitrogen by Thermofisher Scientific, Illkirch-Graffenstaden, France) during 1 hour at 4° C. To determine EC50 value, 8 concentrations of anti-CCR8 mAb were tested. Unbound antibodies were washed away with PBS (Invitrogen by Thermofisher Scientific, Illkirch-Graffenstaden, France) supplemented by 2% Fetal Bovine Serum (Invitrogen by Thermofisher Scientific, Illkirch-Graffenstaden, France) and 2 mM EDTA (Invitrogen by Thermofisher Scientific, Illkirch-Graffenstaden, France). Subsequently, cells are centrifuged (5 min at 400 g) and bound antibody is detected with F(ab′)2-Goat anti-Mouse IgG (H+L) Cross-Adsorbed Secondary Antibody, Alexa Fluor 488 (dilution 1/500) (Invitrogen by Thermofisher Scientific, Illkirch-Graffenstaden, France) or with F(ab′)₂-Goat anti-Human IgG Fc Secondary Antibody, PE (Invitrogen by Thermofisher Scientific, Illkirch-Graffenstaden, France) (dilution 1/1000) at 4° C. for 30 min. Detection reagent is washed away and cells are centrifuged (5 min at 400 g) and resuspended in 30 μL PBS. Bound detection antibody is quantified on a MacsQuant16 (Miltenyi, Gladbach, Germany) (B1 or B2 channel, 5000 events per acquisition). During the experiment, the respective isotype mAb controls (mouse IgG1, mouse IgG2a, mouse IgG2b, mouse IgG3 or human IgG1) (Biolegend, Amsterdam, The Netherlands) are included to exclude any unspecific binding events. EC50 values were determined via nonlinear fit “log (agonist) vs.response—Variable slope (four parameters)” function of Graphpad prism. EC50 values were not constantly determined in the same experiments.
Anti-CCR8 mAb cellular reactivity was also evaluated on native human CCR8 from HUT78 cell line by flow cytometry. In Table 4.3, Mean Fluorescence Intensity (Fold change to isotype control), the percentage of labelled cells and EC50 in nM of some anti-CCR8 antibodies are presented.

T3 sequence (peptide, as listed by the source): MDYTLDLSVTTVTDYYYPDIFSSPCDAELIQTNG
T1 sequence (peptide, as listed by the source): as above
T2 sequence (peptide, as listed by the source): as above
T4 sequence (peptide, as listed by the source): as above
T8 sequence (peptide, as listed by the source): as above
T9 sequence (peptide, as listed by the source): as above
T7 sequence (peptide, as listed by the source): as above
T10 sequence (peptide, as listed by the source): as above

Binder	binding result (pm6)	binding result (pm8)	binding result (pm3)	binding result (pm5)	IC50 of CCL1-induced hCCR8 Gi2 signaling (BRET, HEK-293) (human CCR8 [2])	residual hCCL1 (100 nM) Gi2 response, protocol #2, mAb 0.08 µg/mL (human CCR8 [4]) [%]	residual hCCL1 (100 nM) Gi2 response, protocol #2, mAb 0.4 µg/mL (human CCR8 [4]) [%]	residual hCCL1 (100 nM) Gi2 response, protocol #2, mAb 10 µg/mL (human CCR8 [4]) [%]	residual hCCL1 (100 nM) Gi2 response, protocol #3, mAb 0.05 µg/mL (human CCR8 [4]) [%]	residual hCCL1 (100 nM) Gi2 response, protocol #3, mAb 0.5 µg/mL (human CCR8 [4]) [%]	residual hCCL1 (100 nM) Gi2 response, protocol #3, mAb 5 µg/mL (human CCR8 [4]) [%]	extrapolated top plateau of hCCL1 curve with 5 µg/mL mAb, protocol #3 (human CCR8 [6])	IC50 [7]	Ki [7]	binding result (pm4)	binding result (pm2)	binding result (pm1)	other results
anti-CCR8 mAb 1-9 (antibody, V domains shown, Murine hybridoma mAb) VH: EVQLVESGGGLVQPKGSLKLSCAASGFTFNAYAMNWVRQAPGKGLEWLARIRSKSNNYATYYADSVKDRFTISRDDSQSMFYLQMNNLKSEDTAMYYCVRGREAYYRYDGGYYAMDYWGQGTSVTVSS VL: EIVMTQAALSAPVTPGESVSMSCRSSKSLLHSNGNTYLYWFLQRPGQSPQLLIYRMSNLASGVPDRFSGSGSGTAFTLRISRVEAEDVGVYYCMQHLEYPFTFGSGTKLEIK	binds	binds	binds	binds	0.015 µg/mL and 0.1 nM	88	57	46	73	36	36	533000 % of hCCL1 (100 nM)						IC50 (human CCR8 [1]): ~0.91 µg/mL and 6.09 nM; IC50 (read off the curve) (human CCR8 [3]): ~0.9 µg/mL; % positive cells (human CCR8 [5]): 81.8%; MFI fold change to isotype ctrl (human CCR8 [5]): 16.2 fold
anti-CCR8 mAb 1-19 (antibody, human IgG1, kappa, V domains shown, Humanized mAb, human IgG1 / kappa) VH: EVQLVESGGGLVQPGRSLRLSCTASGFTFNTYAMNWVRQAPGKGLEWVARIRSKSNNYATYYAASVKGRFTISRDDSKSIAYLQMNSLKTEDTAVYYCVRGREAYYRYDGGYYAMDVWGQGTTVTVSS VL: DIVMTQAAPSLPVTPGESASISCRSSKSLLHSNGNTYLYWFLQKPGQSPQLLIYRMSNLASGVPDRFSGSGSGTAFTLKISRVEAEDVGVYYCMQHLEYPFTFGSGTKLEIKR	binds	binds	binds	binds	0.048 µg/mL and 0.318 nM								0.02 µg/mL	0.01 µg/mL and 0.06 nM	binds	binds	binds	IC50 [8]: 100 to 1000 pM
anti-CCR8 mAb 1-21 (antibody, human IgG1, kappa, Humanized mAb; Fc from human IgG1 allotype G1m17 with the terminal lysine deleted and the SDIE mutations (already in the entry)) heavy: not shown light: DIVMTQAAPSLSVTPGESASISCTSSKSLLHSNGNTYLYWFLQKPGQSPQLLIYRMSNLASGVPDRFSGSGSGTAFTLKISRVEAEDVGVYYCMQHREYPFTFGSGTKLEIKRTVAAPSVFIFPPSDEQLKSGTASVVCLLNNFYPREAKVQWKVDNALQSGNSQESVTEQDSKDSTYSLSSTLTLSKADYEKHKVYACEVTHQGLSSPVTKSFNRGEC	binds	binds	binds	binds	0.035 µg/mL and 0.232 nM	74	54	40	89	63	51	138000 % of hCCL1 (100 nM)	0.09 µg/mL and 0.6 nM	0.05 µg/mL and 0.3 nM	binds	binds	binds	ADCP % max phagocytosis, HUT78 targets, MDM donor 9 (human CCR8 [9]): 9.65%; binding result (pwt1): binds; IC50 of CCL1-induced hCCR8 Gi2 signaling (BRET), pH 6.5 (human CCR8 [10]): 0.025 µg/ml and 0.165 nM; IC50 of CCL1-induced hCCR8 Gi2 signaling (BRET), pH 7.4 (human CCR8 [10]): 0.035 µg/ml and 0.232 nM; ADCC % max lysis, HUT78 targets, NK donor 1 (human CCR8 [11]): 30%; ADCC % max lysis, HUT78 targets, NK donor 2 (human CCR8 [11]): 28%; ADCC EC50, HUT78 targets, NK donor 1 (human CCR8 [11]): 6.43 pM; ADCC EC50, HUT78 targets, NK donor 2 (human CCR8 [11]): 0.42 pM; % of labelled cells (human CCR8 [12]): 32%

From US20260132208A1 (DOMAIN THERAPEUTICS, published 2026)
